Here are results for 1 substance from article PMC4322367.

For experiment [1], the target named is Plk1 (UniProt P53350). The experiment is described as follows: GST pull-down of His-Plk1. Conditions: reference: wild type; sites S12.
Experiment [2] concerns the target Plk1 (UniProt P53350). The experiment is described as follows: co-IP of FLAG-Ataxin-10 and HA-Plk1. The settings on record: reference: wild type; sites S12.

Take Ataxin-10 (from UniProt Q9UBB4) S12A: the values for the other: percent decrease vs wild type in experiment [1] and in experiment [2] were 20% and 30%, respectively.
